Results as given in patent publication US20140120109A1 (Regeneron, published 2014).

T1: human TL1A, soluble, CHO-expressed, residues 72-251 of SEQ ID NO:244 with N-terminal His6-tag (human, UniProt O95150 72-251)
T1 construct: also called hTL1A; hTL1A (CHO)
T1 sequence: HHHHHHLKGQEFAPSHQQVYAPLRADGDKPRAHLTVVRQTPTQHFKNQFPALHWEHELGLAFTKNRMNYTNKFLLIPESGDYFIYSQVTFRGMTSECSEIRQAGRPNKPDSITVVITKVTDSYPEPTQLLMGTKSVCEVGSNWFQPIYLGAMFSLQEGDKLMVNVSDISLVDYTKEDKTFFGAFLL

T2: cynomolgus monkey TL1A, soluble, CHO-expressed, residues 72-251 of SEQ ID NO:248 with N-terminal His6-tag (cynomolgus monkey (Macaca fascicularis), UniProt O95150 72-251 (human entry))
T2 construct: also called MfTL1A; MfTL1A (CHO)
T2 chain: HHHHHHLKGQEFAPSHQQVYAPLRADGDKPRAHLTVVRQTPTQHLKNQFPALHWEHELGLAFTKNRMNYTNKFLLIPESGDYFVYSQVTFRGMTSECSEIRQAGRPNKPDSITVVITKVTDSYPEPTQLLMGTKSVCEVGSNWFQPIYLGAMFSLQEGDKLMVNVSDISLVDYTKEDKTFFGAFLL

T3: rat TL1A, soluble, CHO-expressed, residues 76-252 of SEQ ID NO:258 with N-terminal His6-tag (rat, UniProt Q8K3Y7 76-252)
T3 construct: also called rTL1A; rTL1A (CHO)
T3 sequence: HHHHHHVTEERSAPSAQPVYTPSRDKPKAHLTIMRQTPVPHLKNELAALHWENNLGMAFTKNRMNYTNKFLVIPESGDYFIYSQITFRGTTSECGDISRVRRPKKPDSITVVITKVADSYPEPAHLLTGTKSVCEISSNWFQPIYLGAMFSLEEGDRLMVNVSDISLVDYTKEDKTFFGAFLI

T4: human TL1A, soluble, E. coli-expressed, residues 72-251 of SEQ ID NO:244 (human, UniProt O95150 72-251)
T4 sequence: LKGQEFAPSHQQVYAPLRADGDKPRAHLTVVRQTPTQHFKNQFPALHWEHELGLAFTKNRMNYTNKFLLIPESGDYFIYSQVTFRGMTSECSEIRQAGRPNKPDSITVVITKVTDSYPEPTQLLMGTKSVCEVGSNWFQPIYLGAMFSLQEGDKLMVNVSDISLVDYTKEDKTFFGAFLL


Key:
[1] = target: T1, human TL1A, soluble, CHO-expressed, …; assay: SPR 25C, mAb captured
Outline: (§1)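 Biacore T100 SPR with captured mAb and soluble TL1A/Fhm analyte; ka and kd fitted to a 1:1 model assuming monomeric TL1A. KD = kd/ka; t1/2 (min) = ln2/(60·kd).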

[2] = target: T2, cynomolgus monkey TL1A, soluble, …; assay: SPR 25C, mAb captured
Outline: as §1

[3] = target: T3, rat TL1A, soluble, CHO-expressed, …; assay: SPR 25C, mAb captured
Outline: as §1

[4] = target: T1, human TL1A, soluble, CHO-expressed, …; assay: cell-based or functional assay
[5] = target: T4, human TL1A, soluble, E. coli-expressed, …; assay: cell-based or functional assay
[6] = target: T1, human TL1A, soluble, CHO-expressed, …; assay: cell-based or functional assay; remark: listed apart in the source
[7] = target: T1, human TL1A, soluble, CHO-expressed, …; assay: ELISA, blocks hTL1A (10 pM) binding hDcR3-Fc
Outline: (§2)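 Competition sandwich ELISA: biotinylated CHO-expressed ligand (human TL1A, FHM Q167R variant, or cynomolgus TL1A) at fixed concentration preincubated with titrated antibody 1 h at 25 °C, then 1 h on hDR3-Fc or hDcR3-Fc coated wells. Bound ligand detected by streptavidin-HRP/TMB at 450 nm; sigmoidal dose-response fit.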

[8] = target: T1, human TL1A, soluble, CHO-expressed, …; assay: ELISA, blocks hTL1A (150 pM) binding hDR3-Fc
Outline: as §2

[9] = target: T2, cynomolgus monkey TL1A, soluble, …; assay: ELISA, blocks MfTL1A (50 pM) binding hDcR3-Fc
Outline: as §2

[10] = target: T2, cynomolgus monkey TL1A, soluble, …; assay: ELISA, blocks MfTL1A (500 pM) binding hDR3-Fc
Outline: as §2

Binder | Kd [1] | t1/2 [1] | Kd [2] | t1/2 [2] | Kd [3] | t1/2 [3] | IC50, NFkB-luciferase reporter [4] | IC50, NFkB-luciferase reporter [5] | Average % Blocking IFN-g, 3 ug/ml mAb [6] | IC50 [7] | IC50 [8] | IC50 [9] | IC50 [10] | binding result [3]
H4H1752P (antibody, human IgG4 S228P, V domains shown) VH: EVQLVESGGGLVQPGGSLRLSCSASGFTFSKYVMTWVRQAPGKGLEWVSAIGPTGRTTEYADSVQGRFTISRDNSMNTVFLHLNSLTAEDTAEYYCAKMFDWNYDVYFDSWGQGTLVTVSS VL: DIQMTQSPSILSASVGDRVTITCRTSQSISNWLAWYQQKPGKAPNLLIYKASSLESGVPSRFSGSGSGTEFTLTISSLQPDDFATYYCQQYYRYWTFGQGTKVEIK | 0.156 nM | 3.28 h | 0.213 nM | 2.32 h | – | – | 0.36 nM | 0.21 nM | 71% | 0.031 nM | 0.104 nM | 0.056 nM | 0.11 nM | no binding (tested: up to 100 nM)
H4H1681N (antibody, human IgG4 S228P, V domains shown) VH: EVQLLESGGGLVQPGKSLRLSCAVSGFTFSTYGMNWVRQAPGKGLEWVSSISGTGRTTYHADSVQGRFTVSRDNSKNILYLQMNSLRADDTAVYFCTKERGDYYYGVFDYWGQGTLVTVSS VL: DIQMTQSPSTLSASVGDRVTITCRASQTISSWLAWYQQTPEKAPKLLIYAASNLQSGVPSRFSGSGSGTEFTLTISSLQPDDFATYYCQQYHRSWTFGQGTKVEIT | 0.263 nM | 0.6 h | 0.404 nM | 0.417 h | – | – | 0.17 nM | 0.02 nM | 95% | 0.017 nM | 0.06 nM | 0.093 nM | 0.141 nM | no binding (tested: up to 100 nM)
H4H1750P (antibody, human IgG4 S228P, V domains shown) VH: QVQLVESGGGVVQPGRSLRLSCVASGFTFSNYGMHWVRQAPGKGLEWVAVISYDGNNDLYSDSVKGRFTISRDNAKNALSLQMTSLRAEDTAVYYCARDSTMTPYYYHGIDVWGQGTTVTVSA VL: DIQMTQSPSSLSASVGDRVTITCRASQDIRNDLGWYQQKPGKAPKRLIYAASSLQSGVPSRFSGSGSGTDFTLTISSLQPEDFATYYCLQHNSYPPTFGQGTKVEIK | – | – | – | – | – | – | 0.9 nM | 2.17 nM | 89% | 0.656 nM | 0.341 nM | – | – | no binding (tested: up to 100 nM)
H4H1719P (antibody, human IgG4 S228P, V domains shown) VH: EVQLVESGGGLVQPGRSLRLSCVASGFTFQDYAMHWVRQAPGKGLEWVSGINWISDDMGYADSVMGRFTISRDNAKNSLYLQMDSLRAEDTALYYCAKDKGLRFLDYVMDVWGQGTTVTVSA VL: DIVMTQSPLSLPVTPGEPASISCRSTQSLLHRNGHNYLHWYLHKPGQSPQLLIHLGSNRASGVPDRFSGSGSGTDFTLKISRVEAEDVGVYYCMQALQTPYTFGQGTKLEIK | 0.481 nM | 0.733 h | 0.417 nM | 0.75 h | 0.364 nM | 0.633 h | 0.06 nM | 0.02 nM | 78% | 0.044 nM | 0.022 nM | 0.061 nM | 0.046 nM | –

The remaining binders from weak to strong by IC50 [7], led by results:

Kd [1] | t1/2 [1] | Kd [2] | t1/2 [2] | Kd [3] | t1/2 [3] | IC50, NFkB-luciferase reporter [4] | IC50, NFkB-luciferase reporter [5] | Average % Blocking IFN-g, 3 ug/ml mAb [6] | IC50 [7] | IC50 [8] | IC50 [9] | IC50 [10] | binding result [3] | Binder
0.321 nM | 1.72 h | 0.356 nM | 1.53 h | 2.5 nM | 0.417 h | 0.11 nM | 0.04 nM | 98% | 0.27 nM | 0.114 nM | 0.322 nM | 0.101 nM | – | H4H1817N (antibody, human IgG4 S228P, V domains shown, human IgG4(S108P) form of H2M1817N) VH: QVQLQQWGAGLLKPSETLSLTCAVSGGSFSDYFWTWIRQPPGKGLEWIGEISHSGRTNYNPSLKSRVTISVDTSMSQFSLKMTSVTAADSAVYYCARDYPNWVFDYWGQGTLVTVSS VL: EIELTQSPGTLSLSPGEGATLSCRASQSVFNSYLAWYQQKPGQAPRLLIYGASRRATGIPDRFSGSGSGTDFTLTISRLEPGDFAVYFCQQYGNSPLTFGGGTKVEIK
0.124 nM | 2 h | 0.119 nM | 2.03 h | 0.088 nM | 1.53 h | 0.37 nM | 0.29 nM | 71% | 0.232 nM | 0.119 nM | 1.1 nM | 0.123 nM | – | H4H1818N (antibody, human IgG4 S228P, V domains shown, human IgG4(S108P) form of H2M1818N) VH: RLQLVESGGGLVKPGGSLKLSCAASGFTISDYYMSWIRQAPGKGLEWVSYIGGSGSTIYYADSVKGRFTISRDNAKNSLYLQMNSLRAEDTAVYYCAREDADSYYYYGMDVWGQGTTVTVSS VL: not shown
0.291 nM | 0.85 h | 0.264 nM | 0.817 h | 0.321 nM | 0.717 h | 0.07 nM | 0.03 nM | 98% | 0.175 nM | 0.04 nM | 0.034 nM | 0.071 nM | – | H4H1804N (antibody, human IgG4 S228P, V domains shown, human IgG4(S108P) form of H2M1804N) VH: QVQLHQWGAGLLKPSETLSLTCAVSGVSFSDYHWAWIRQSPGKGLEWIGDINHRGRTNYNPSLKSRVTISLDTSGNPFSLKLTSVTAADTAVYYCARDFPNWVFDSWGQGILVTVSS VL: EIVLSQSPGTLSLSPGERATLSCRASQSVSSSFLAWYQQYPGQAPRLLIYGASRRATGIPDRFRGSGSGTDFTLTISRLEPEDFAVYYCQQYGSSPLTFGGGTKVENK
0.0392 nM | 7.55 h | 0.0599 nM | 4.6 h | 0.404 nM | 0.417 h | 0.13 nM | 0.06 nM | 98% | 0.077 nM | 0.03 nM | 0.11 nM | 0.042 nM | – | H4H1704N (antibody, human IgG4 S228P, V domains shown, human IgG4(S108P) form of H2M1704N) VH: EVQLVESGGGLVQPGGSLRLSCAVSGFTFSSYWMSWVRQAPGKGLEWVANIKEDGSEKNYVDSVKGRFTLSSDNAKNSLYLQMNSLRAEDTAVYYCAREDYDSYYKYGMDVWGQGTAVIVSS VL: not shown
0.365 nM | 1.22 h | 0.342 nM | 1.23 h | – | – | 0.1 nM | 0.04 nM | 94% | 0.033 nM | 0.014 nM | 0.313 nM | 0.026 nM | no binding (tested: up to 100 nM) | H4H1805N (antibody, human IgG4 S228P, V domains shown, human IgG4(S108P) form of H2M1805N) VH: QVQLQQWGAGLLKPSETLSLTCAVYGGSFTGFYWSWIRQPPGKGLEWIGEINHRGNTNYNPSLKSRVTMSVDTSKNQFSLNMISVTAADTAMYFCASPFYDFWSGSDYWGQGTLVTVSS VL: DIMLTQTPLTSPVTLGQPASISCKSSQSLVHSDGNTYLSWLQQRPGQPPRLLFYKISNRFSGVPDRFSGSGAGTDFTLKISRVEAEDVGVYYCMQATQFPLTFGGGTKVEIK
